Laboratory results reported in patent US20250333749A1, “INDUCIBLE PROMOTER, VECTOR AND HOST CELL BASED THEREON” (JOINT STOCK COMPANY «BIOCAD», priority 2021, published 2025).
Blank lines part the entries; values can stand above or below the molecule they belong to.

Legend:
[1] = system: HEK293 Nf-kB reporter line; test: Activation of HEK293 Nf-kB reporter line by PMA (luciferase); format: cell-based; conditions: 24 hours incubation; FIG. 5
Protocol: (§1) We used a PMA activator to screen clonal reporter lines. This agent directly effects protein kinase C, thus triggering signaling cascades that activate the reporter gene expression (https://doi.org/10.1007/s11373-005-1210-5; doi: 10.1093/carcin/bgm261). To determine the optimal dose of PMA, we conducted experiments involving activation of the HEK293 Nf-kB reporter line. Cells were seeded in a white 96-well culture plate for adhesion cultures at 3*10^5 cells per well, and PMA activator was added at concentrations indicated in the graph up to 150 μl in a well. All solutions were prepared in DMEM growth medium supplemented with 10% fetal bovine serum, 2 mM L-glutamine and 10 μg/ml gentamicin. The plate was incubated for 24 hours at 37° C. in a humid atmosphere in the presence of 5% CO2. Following incubation, the wells were drained, and 100 μl of luciferin substrate with a lysing component was added, the plate was left in the dark for 10 minutes, after which the luminescence level was detected using a plate reader using the SparkControl V2.1 software package (Tecan, Austria).

[2] = biological target: AXL receptor expressed on HEK293 reporter cells (HEK293_STAT3-STAT5-AP1_FLuc_AXL; HEK293_AXL_STAT3-STAT5-AP1_FLuc) (UniProt P30530); test: cell-based or functional assay
UniProt P30530, sequence (P30530 26-894 limits assumed): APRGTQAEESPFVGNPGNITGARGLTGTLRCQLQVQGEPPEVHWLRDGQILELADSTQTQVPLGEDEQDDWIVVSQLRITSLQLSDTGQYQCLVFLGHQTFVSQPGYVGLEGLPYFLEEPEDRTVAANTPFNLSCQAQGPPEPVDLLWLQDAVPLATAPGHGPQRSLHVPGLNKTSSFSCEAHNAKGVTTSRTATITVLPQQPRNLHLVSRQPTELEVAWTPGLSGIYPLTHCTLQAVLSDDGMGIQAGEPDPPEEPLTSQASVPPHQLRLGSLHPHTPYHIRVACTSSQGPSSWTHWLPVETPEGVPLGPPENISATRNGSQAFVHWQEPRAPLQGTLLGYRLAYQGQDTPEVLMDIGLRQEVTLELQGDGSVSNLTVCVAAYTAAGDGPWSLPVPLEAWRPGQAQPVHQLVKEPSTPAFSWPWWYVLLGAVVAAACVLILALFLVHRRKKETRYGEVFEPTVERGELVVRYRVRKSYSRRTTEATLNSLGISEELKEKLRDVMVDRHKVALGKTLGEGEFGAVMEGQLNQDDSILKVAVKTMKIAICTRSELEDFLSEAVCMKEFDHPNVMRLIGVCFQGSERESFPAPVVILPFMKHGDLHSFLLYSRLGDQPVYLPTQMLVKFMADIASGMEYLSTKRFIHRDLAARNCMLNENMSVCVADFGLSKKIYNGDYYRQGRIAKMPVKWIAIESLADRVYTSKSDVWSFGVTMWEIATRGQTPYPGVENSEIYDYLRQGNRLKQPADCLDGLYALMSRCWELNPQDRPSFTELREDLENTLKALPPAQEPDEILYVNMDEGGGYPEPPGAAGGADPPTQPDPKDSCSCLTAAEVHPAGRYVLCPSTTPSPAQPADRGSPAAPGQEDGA

[3] = system: HEK293-STAT3-STAT5-AP1_FLuc_IL10R cells (IL-10 receptor); test: IL10 activity determination test (luciferase expression activation); format: cell-based, human; conditions: various concentrations of IL10; FIG. 8
Protocol: as §1
To evaluate the reporter line in a specific cell test, we expressed the IL-10 receptor onto the surface of the reporter cells. To this end, the HEK293_STAT3-STAT5-AP1_FLuc reporter cell line produced in Example 4 was transfected with plasmid vectors encoding IL-10 receptor subunits produced in Example 2. […]

[4] = system: HEK293_STAT3-STAT5-AP1_FLuc_AXL cells (AXL receptor); test: GAS6-dependent AXL-mediated activation of reporter cell line HEK293_STAT3-STAT5-AP1_FLuc_AXL; format: cell-based; conditions: GAS6 2 μg/ml
Protocol: (§2) To generate the reporter cell line HEK293_STAT3-STAT5-AP1_FLuc_AXL, we used three clones of the universal reporter cell line HEK293_STAT3-STAT5-AP1_FLuc: cl. D1, cl. B3 and cl. C4 #2; on the basis of them, we produced, respectively, 3 pools of cells with an embedded constitutionally expressed AXL receptor gene. AXL-mediated activation of these pools was tested. The test was performed in a 96-well culture plate designed for luminescence assays. […] The final volume of the cell suspension in a well was 100 μl, all components of the suspension were prepared in DMEM medium free of fetal bovine serum. After adding all the components, the plate was incubated for 16 hours at 37° C., 5% CO2, and then, using a luminescence assay kit, we measured the luminescence intensity in the wells. The measurement was carried out using a plate reader. The activation level was calculated as the ratio of luminescence level for a given pool in the presence of GAS6 to luminescence level in the absence of GAS6.
B3 and cl. […] D1. […]
The test was performed similarly to the procedure described in Example 7, we used the cells of the reporter line HEK293_STAT3-STAT5-AP1_FLuc_AXL (cl.13) and GAS6 at a concentration of 2 μg/ml (FIG. 11) for activation; following adding all the components, the plate was incubated for the time shown in the graph, the luminescence intensity in the wells was then determined. […]

[5] = system: HEK293_AXL_STAT3-STAT5-AP1 cells (AXL overexpresser); test: GAS6 activation of reporter cell line HEK293_AXL_STAT3-STAT5-AP1 as a function of cell count; format: cell-based; conditions: GAS6 2 μg/ml; 96-well plate; FIG. 17
Protocol: as §2
To create the reporter cell line HEK293_AXL_STAT3-STAT5-AP1_FLuc, we used the cell line HEK293_AXL, an AXL overexpresser, on the basis of which we produced a pool of cells comprising a gene encoding firefly luciferase under the control of STAT3-STAT5-AP1 promoter. […] The test was performed in a similar fashion to the procedure described in Example 7, at a concentration of GAS6 of 2 μg/ml. […]

Molecule: CCCCCCCCCCCCCC(=O)O[C@@H]1[C@@H](C)[C@@]2(O)[C@@H](C=C(CO)C[C@]3(O)C(=O)C(C)=C[C@@H]23)[C@@H]2C(C)(C)[C@]12OC(C)=O [PMA]
optimal concentration of the PMA activator [1]: 33 nM

level of GAS6-dependent activation, well A1 (fold over non-activated cells) [2]: 1.35
level of GAS6-dependent activation, well A2 (fold over non-activated cells) [2]: 1.59
level of GAS6-dependent activation, well A3 (fold over non-activated cells) [2]: 8.66
level of GAS6-dependent activation, well A4 (fold over non-activated cells) [2]: 1.09
level of GAS6-dependent activation, well A6 (fold over non-activated cells) [2]: 1.49
level of GAS6-dependent activation, well A7 (fold over non-activated cells) [2]: 2.16
level of GAS6-dependent activation, well A8 (fold over non-activated cells) [2]: 0.85
level of GAS6-dependent activation, well A9 (fold over non-activated cells) [2]: 0.96
level of GAS6-dependent activation, well A10 (fold over non-activated cells) [2]: 6.93
level of GAS6-dependent activation, well A11 (fold over non-activated cells) [2]: 1.54
level of GAS6-dependent activation, well B1 (fold over non-activated cells) [2]: 1.09
level of GAS6-dependent activation, well B2 (fold over non-activated cells) [2]: 2.12
level of GAS6-dependent activation, well B3 (fold over non-activated cells) [2]: 1.33
level of GAS6-dependent activation, well B4 (fold over non-activated cells) [2]: 1.28
level of GAS6-dependent activation, well B5 (fold over non-activated cells) [2]: 1.5
level of GAS6-dependent activation, well B6 (fold over non-activated cells) [2]: 0.99
level of GAS6-dependent activation, well B7 (fold over non-activated cells) [2]: 1.12
level of GAS6-dependent activation, well B8 (fold over non-activated cells) [2]: 2.1
level of GAS6-dependent activation, well B9 (fold over non-activated cells) [2]: 1.26
level of GAS6-dependent activation, well B10 (fold over non-activated cells) [2]: 1.58
level of GAS6-dependent activation, well B11 (fold over non-activated cells) [2]: 2.56
level of GAS6-dependent activation, well B12 (fold over non-activated cells) [2]: 1.4
level of GAS6-dependent activation, well C1 (fold over non-activated cells) [2]: 0.92
level of GAS6-dependent activation, well C2 (fold over non-activated cells) [2]: 1.32
level of GAS6-dependent activation, well C3 (fold over non-activated cells) [2]: 0.95
level of GAS6-dependent activation, well C4 (fold over non-activated cells) [2]: 1.2
level of GAS6-dependent activation, well C5 (fold over non-activated cells) [2]: 1.2
level of GAS6-dependent activation, well C6 (fold over non-activated cells) [2]: 4.37
level of GAS6-dependent activation, well C8 (fold over non-activated cells) [2]: 1.04
level of GAS6-dependent activation, well C9 (fold over non-activated cells) [2]: 1.77
level of GAS6-dependent activation, well C10 (fold over non-activated cells) [2]: 3.15
level of GAS6-dependent activation, well C11 (fold over non-activated cells) [2]: 5.55
level of GAS6-dependent activation, well C12 (fold over non-activated cells) [2]: 1.47
level of GAS6-dependent activation, well D1 (fold over non-activated cells) [2]: 1.25
level of GAS6-dependent activation, well D2 (fold over non-activated cells) [2]: 1.29
level of GAS6-dependent activation, well D3 (fold over non-activated cells) [2]: 2.38
level of GAS6-dependent activation, well D4 (fold over non-activated cells) [2]: 2.41
level of GAS6-dependent activation, well D5 (fold over non-activated cells) [2]: 2.63
level of GAS6-dependent activation, well D6 (fold over non-activated cells) [2]: 1.32
level of GAS6-dependent activation, well D7 (fold over non-activated cells) [2]: 1.16
level of GAS6-dependent activation, well D8 (fold over non-activated cells) [2]: 2.12
level of GAS6-dependent activation, well D9 (fold over non-activated cells) [2]: 1.55
level of GAS6-dependent activation, well D10 (fold over non-activated cells) [2]: 1.68
level of GAS6-dependent activation, well D11 (fold over non-activated cells) [2]: 3.74
level of GAS6-dependent activation, well D12 (fold over non-activated cells) [2]: 1.23
level of GAS6-dependent activation, well E1 (fold over non-activated cells) [2]: 1.83
level of GAS6-dependent activation, well E2 (fold over non-activated cells) [2]: 0.93
level of GAS6-dependent activation, well E3 (fold over non-activated cells) [2]: 3.03
level of GAS6-dependent activation, well E4 (fold over non-activated cells) [2]: 1.18
level of GAS6-dependent activation, well E5 (fold over non-activated cells) [2]: 1.73
level of GAS6-dependent activation, well E6 (fold over non-activated cells) [2]: 1.51
level of GAS6-dependent activation, well E7 (fold over non-activated cells) [2]: 2.14
level of GAS6-dependent activation, well E8 (fold over non-activated cells) [2]: 1.13
level of GAS6-dependent activation, well E9 (fold over non-activated cells) [2]: 1.74
level of GAS6-dependent activation, well E10 (fold over non-activated cells) [2]: 1.55
level of GAS6-dependent activation, well E11 (fold over non-activated cells) [2]: 0.86
level of GAS6-dependent activation, well E12 (fold over non-activated cells) [2]: 1.03
level of GAS6-dependent activation, well F1 (fold over non-activated cells) [2]: 1.55
level of GAS6-dependent activation, well F2 (fold over non-activated cells) [2]: 1.34
level of GAS6-dependent activation, well F3 (fold over non-activated cells) [2]: 7.48
level of GAS6-dependent activation, well F4 (fold over non-activated cells) [2]: 1.79
level of GAS6-dependent activation, well F5 (fold over non-activated cells) [2]: 1.69
level of GAS6-dependent activation, well F7 (fold over non-activated cells) [2]: 2.89
level of GAS6-dependent activation, well F8 (fold over non-activated cells) [2]: 1.58
level of GAS6-dependent activation, well F9 (fold over non-activated cells) [2]: 1.53
level of GAS6-dependent activation, well F10 (fold over non-activated cells) [2]: 1.35
level of GAS6-dependent activation, well F11 (fold over non-activated cells) [2]: 1.29
level of GAS6-dependent activation, well F12 (fold over non-activated cells) [2]: 5.65
level of GAS6-dependent activation, well G1 (fold over non-activated cells) [2]: 2.05
level of GAS6-dependent activation, well G2 (fold over non-activated cells) [2]: 3.08
level of GAS6-dependent activation, well G3 (fold over non-activated cells) [2]: 2.51
level of GAS6-dependent activation, well G4 (fold over non-activated cells) [2]: 1.05
level of GAS6-dependent activation, well G5 (fold over non-activated cells) [2]: 1.55
level of GAS6-dependent activation, well G7 (fold over non-activated cells) [2]: 2.12
level of GAS6-dependent activation, well G8 (fold over non-activated cells) [2]: 2.51
level of GAS6-dependent activation, well G9 (fold over non-activated cells) [2]: 1.78
level of GAS6-dependent activation, well G10 (fold over non-activated cells) [2]: 2.5
level of GAS6-dependent activation, well G11 (fold over non-activated cells) [2]: 2.26
level of GAS6-dependent activation, well G12 (fold over non-activated cells) [2]: 3.43
level of GAS6-dependent activation, well H11 (the pool) (fold over non-activated cells) [2]: 3.61
level of GAS6-dependent activation, well H12 (fold over non-activated cells) [2]: 1.94
Molecule: AXL ligand GAS6 (from UniProt Q14393 49-678)

B1: IL10: Recombinant human IL10 used as an activator (protein)
chain: SPGQGTQSENSCTHFPGNLPNMLRDLRDAFSRVKTFFQMKDQLDNLLLKESLLEDFKGYLGCQALSEMIQFYLEEVMPQAENQDPDIKAHVNSLGENLKTLRLRLRRCHRFLPCENKSKAVEQVKNAFNKLQEKGIYKAMSEFDIFINYIEAYMTMKIRN
response of the reporter cell line to IL10 activator [3]: dose-dependent response

B2: GAS6: the AXL ligand GAS6; activator of AXL-dependent cell signaling (protein)
chain: AFQVFEEAKQGHLERECVEELCSREEAREVFENDPETDYFYPRYLDCINKYGSPYTKNSGFATCVQNLPDQCTPNPCDRKGTQACQDLMGNFFCLCKAGWGGRLCDKDVNECSQENGGCLQICHNKPGSFHCSCHSGFELSSDGRTCQDIDECADSEACGEARCKNLPGSYSCLCDEGFAYSSQEKACRDVDECLQGRCEQVCVNSPGSYTCHCDGRGGLKLSQDMDTCEDILPCVPFSVAKSVKSLYLGRMFSGTPVIRLRFKRLQPTRLVAEFDFRTFDPEGILLFAGGHQDSTWIVLALRAGRLELQLRYNGVGRVTSSGPVINHGMWQTISVEELARNLVIKVNRDAVMKIAVAGDLFQPERGLYHLNLTVGGIPFHEKDLVQPINPRLDGCMRSWNWLNGEDTTIQETVKVNTRMQCFSVTERGSFYPGSGFAFYSLDYMRTPLDVGTESTWEVEVVAHIRPAADTGVLFALWAPDLRAVPLSVALVDYHSTKKLKKQLVVLAVEHTALALMEIKVCDGQEHVVTVSLRDGEATLEVDGTRGQSEVSAAQLQERLAVLERHLRSPVLTFAGGLPDVPVTSAPVTAFYRGCMTLEVNRRLLDLDEAAYKHSDITAHSCPPVEPAAA
Level of GAS6-dependent activation (activation relative to non-activated cells) ([4]; well H11 = initial pool (based on cl. D1)): 3.61
incubation time with the highest level of activation ([4]; cl.13, FIG. 11): 24 h
cell count per well with the highest level of activation [5]: 25,000-50,000 cells
